B1: OR4K15 (parent)
chain: GUUAACGGUCAUAGGCCAUGGAAACUAGGAGCACCAUUUCGCUGCCAGUGAAGAAAUGAACAAAGAAAAUCUGGGCCAGGCAGGCAUCAAAAGAAAUAGUCUUGCGCUCAACCAGAAAGUCUGUAAUCAUUUUAAGGGUA

In the data set the parent is B1. The experiment in a line: self-cleavage, relative activity (ratio to wild type); higher = more cleavage; in vitro, sequencing; the parent is a self-cleaving ribozyme.
Regarding GUUAACGGUCAUAGGCCAUGGAAACUAGGAGCACCACUUCGCUGCCAGUGAAGAAAUGAACAAAGAAAAUCUGGGCCAGGCAGGCAUCAAAAGAAAUAGUCUUGCGCUCAACCAGAAAGUCUGUAAACAUUUUAAGGGUA, the self-cleavage was 2.07.
In the case of GUUAACGGUCAUAGGCCAUGGGAACUAGGAGCACCAUUUCGCUGCCAGUGAAGAAAUGAACAAUGAAAAUCUGGGCCAGGCAGGCAUCAAAAGAAAUAGUCUUGCGCUCAACCAGAAAGUCUGUAAUCAUUUUAAGGGUA it was 0.62; in that of GUUAACGGUCAUAGGCCAUGGAAACUAGGAGCACCAUUUCGCUGCCAGUGAAGAUAUGAACAAAGAAAAUCUGGGCCAGGCAGGCAUCAAAAGAAAUAGCCUUGCGCUCAACCAGAAAGUCUGUAAUCAUUUUAAGGGUA, 2.69.
Take GUUAACGGUCAUAGGCCAUGGAAACUAGGAGCACCAUUUCGCUGCCAGUGAAGAAAUGAACAAAGAAAAUCUGGGCCAGGGAGGCAUCAAAAGAAAUAGUCUUGCGCUCAACCAGAAAGUCUGUAACCAUUUUAAGGGUA: the self-cleavage was found to be 0.04.
In the case of GUUAACGGUCAUAGGCCUUGGAAACUAGGAGCACCAUUUCGCUGCCAGUGAAGAAAUGAACAAAGAAAAUCUGGGCCAGGCAGGCAUCAAAAGAAAUAGUCUUGCGCUCAACCAGAAAGUCUGUAAUCAUUCUAAGGGUA it was 1.75.
In the case of GUUAACGGUCAUAGGCCAUGGAAACUAGGAGCACCAUUUCGCUGCCAGUGAAGAAAUGAACAAAGAAAAUCUGGGCCAGGCAGGCAUCAAAAGAAAUAGUCUUGCGCUAAACCAGAAGGUCUGUAAUCAUUUUAAGGGUA it was 0.32; in that of GUUAACGGUCAUAGGCCAUGGAAACUAGGAGCACCAUUUCGCUGCCAGUGAAGAAAUGAACAAAGAAAAUCUGGGCCAGGCAGGCAUCAAAAGAAAUAGUCUUGCGCUCAACCAGAAAGUCUGUAAUCACUAUAAGGGUA, 1.4.
GUUAACGGUCAUAGGCCAUGGAAACUAGGAGCACCAUUUCGCUGCCAGUGAAGAAAUGAAUAAAGAAAAUCUGGGCCAGGCAGGCAUCAAAAGAAAUAGUCUUGCGCUCAACCAGAAAGUCUGUAAUCAUUCUAAGGGUA: the self-cleavage was 1.89.
In the case of GUUAACGGUCAUAGGCCAUGGAAACUAGGAGCACCAUUUCGCUGCCAGUGAAGUAAUGAACAAAGAAAAUCUGGGCCAGGCAGGCAUCGAAAGAAAUAGUCUUGCGCUCAACCAGAAAGUCUGUAAUCAUUUUAAGGGUA it was 1.42; in that of GUUAACGGUCAUAGGCCAUGGAAACUAGGAGCACCAUUUCGCUGCCAGAGAAGAAAUGAACAAAGAAAAUCUGGGCCAGGCAGGCAUCAAAAGAAAUAGUCUUGCGCUCAACCAGAAAGUCUGUGAUCAUUUUAAGGGUA, 0.82.
Regarding GUUAACGGUCAUAGGCCAUGGAAACUAGGAGCACCAUUUCGCUGCCAGUGAAGGAAUGAACAAAGAAAAUCUGGGCCAGGCAGGCAUCAAAAGAAAUAGUCUUGCGCUCAACCAGAGAGUCUGUAAUCAUUUUAAGGGUA, the self-cleavage was 1.68.
As to GUUAACGGUCACAGGCCAUGGAAACUAGGAGCACCAUUUCGCUGCCAGUGAAGAAAUGAACAAAGAAAAUCUGGGCCAGGCAGGCAUCAAAAGAAAUAGUCUUGCGCUCAACCAGAAAGUCUGUAAUCAUUUUAGGGGUA, the self-cleavage is 1.25.
Take GUUAACGGUCAUAGGCCAUGGAAACUAGGAGCACCAUUUCGCUGCCAGUGAAGAAAUGAACAAAGAAAAUCUGGGCCAGGCAGGCAUCACAAGAAAUAGACUUGCGCUCAACCAGAAAGUCUGUAAUCAUUUUAAGGGUA: the self-cleavage was 0.92.
Under GUUAACGGACAUAGGCCAUGGAAACUAGGAGCACCAUUUCGCUGCCAGUGAAGAAAUGAACAAAGAAAAUCUGGGCCAGGCAGGCAUCAAAAGAAAUAGUCUUGCGCUCAACCAGAGAGUCUGUAAUCAUUUUAAGGGUA stands 2.34; under GUUAACGGUCAUAGGCCAUGGAAACUAGGAGCACCAUUUCGCUGCCAGUGAAGAAAUGAUCAAAGAGAAUCUGGGCCAGGCAGGCAUCAAAAGAAAUAGUCUUGCGCUCAACCAGAAAGUCUGUAAUCAUUUUAAGGGUA, 2.09.
Regarding GUUAACGGUCAUAGGCCAUGGAAACUAGGAGCACCAUUUCGCUGCCAGUGAAGAAAUGAACAAAGAAAAUCUGGGCCAGGCAGGCACCAAAAGAAAUAGUCUUGCGCUCAACUAGAAAGUCUGUAAUCAUUUUAAGGGUA, the self-cleavage stood at 0.12.
In the case of GUUAACGGUCAUAGGCCAUGGAAACUAGGAGCACCAUUUCGCUGCCAGUGAAGAAAUGAACAAAGAAAAUCCGGGCCAGGCAGGCAUCAAAAGAAAUAGUCUUGCGCUCAACCAGAAAGUCUGUGAUCAUUUUAAGGGUA it was 0.07; in that of GUUAACGGUCAUAGGCCAUGGAAACUAGGAGCACCAUUUCGCUGCCAGUGAAGUAAUGAACAAAGAAAAUCUGGGCCAGGCAGGCAUCAAAAGAAAUAGUCUUGCGCUCAACCAGAAAGUCUGUAAUCAUUUCAAGGGUA, 2.23.
Under GUUAACGGUCAUAGGCCAUGGAAACUAGGAGCACCAUUUCGCUGCCAGUGAAGAAAUGAACAAAGAAAAUCUGGGCCAGGCAGGCAUCAAAAGAAAUAGUCUUGCGCUCAACCAGAGAGUCUGUAAUCAUUCUAAGGGUA stands 1.85.
In the case of GUUAACGGUCCUAGGCCAUGGAAACUAGGAGCACCAUUUCGCUGCCAGUGAAGAAAUGAACAAAGAAAAUCUGGGCCAGGCUGGCAUCAAAAGAAAUAGUCUUGCGCUCAACCAGAAAGUCUGUAAUCAUUUUAAGGGUA it was 0.36; in that of GUUAACGGUCAUAGGCCAUGGAACCUAGGAGCACCAUUUCGCUGCCAGUGAAGAAAUGAACAAAGAAAAUCUGGGCCAGGCAGGCAUCAAAAGAAAUAGUCUUGCGCUCAACCAGAAAGUCUGUAGUCAUUUUAAGGGUA, 0; in that of GUUAACGGUCAUAGGCCAUUGAAACUAGGAGCACCAUUUCGCUGCCAGUGAAGAAAUGAACAAAGAAAAUCUGGGCCAGGCAGGCAUCAAAAGAAAUAGUCUUGCGCUCAGCCAGAAAGUCUGUAAUCAUUUUAAGGGUA, 0.04.
Regarding GAUAACGGUCAUAGGCCAUGGAAACUAGGAGCACCAUUUCGCUGCCAGUGAAGAAAUGAACAAAGAAAAUCUGGGCCAGGCAGGCGUCAAAAGAAAUAGUCUUGCGCUCAACCAGAAAGUCUGUAAUCAUUUUAAGGGUA, the self-cleavage was 1.46.
As to GUUAACGGUCAUAGGCCAUGGAAACUAGGAGCACCAUUUCGCUGCCAGUGAAGGAAUGAACAAAGAAAAUCUGGGCCAGGCAGGCAUCAAAAGAAAUAGUCUUGCGCUCAACCAGAAAGUCUGUAAACAUUUUAAGGGUA, the self-cleavage was found to be 2.16.
Under GUUAACGGUCAUAGGCCAUGGAAACUAGGAGCACCAUUUCGCUGCCAGUGAAGAAAUGAACAAAGAAAAACUGGGCCAGGCAGGCAUCGAAAGAAAUAGUCUUGCGCUCAACCAGAAAGUCUGUAAUCAUUUUAAGGGUA stands 1.13.
As for GUUAACGGUCAUAGGCCAUGGAAACUAGGAGCACCAUUUCGCUGCCAGUGAAGAAAUGAACAAAGAAAAUCUGGGCCAGGGGGGCAUCAAAAGAAAUAGUCUUGCGCUCAACCAGAAAGUCUGUAAUCAUUUUAAGGGUA, the self-cleavage worked out at 0.3.
In the case of GUUAACGGUCAUAGGCCACGGAAACUAGGAGCACCAUUUCGCUGCCAGUGAAGAAAUGAACAAAGAAAAUCUGGGCCAGGCAGGCAUCUAAAGAAAUAGUCUUGCGCUCAACCAGAAAGUCUGUAAUCAUUUUAAGGGUA it was 1.15; in that of GUUAACGGUCAUAGGCCAUGGAAACUAGGAGCACCAUUUCGCUGCCAGUGAAGAAAUGAACAAAGAAAAUCUGGGCCAGGCAGGCAUCAAAAGAAAUAAUCUUGCGCUCAACCAGAAAGUCUGUAAUCAUUAUAAGGGUA, 0.23.
As for GUUAACGGUCAUAGGCCAUGGUAACUAGGAGCACCAUUUCGCUGCCAGUGAAGAAAUGAACAAAGAAAAUCUGGGCCAGGCAGGCAUCAAAAGUAAUAGUCUUGCGCUCAACCAGAAAGUCUGUAAUCAUUUUAAGGGUA, the self-cleavage is 1.75.
In the case of GUUAACGGUCAUAGGCCAUGGAAACUAGGAGCACCAUUUCGCUGCCGGUGAAGAAAUGAACAAAGAAAAUCUGGGCCAGGCAGGCAUCAAUAGAAAUAGUCUUGCGCUCAACCAGAAAGUCUGUAAUCAUUUUAAGGGUA it was 0.76.
In the case of GUUAACGGUCAUAGGCCAUGGAAACUAGGAGCACCAUUUCGCUGCCAGUGAAGAAAUGAACAAAGAAAAUCUGGGCCAGGCAGGCAUCAAAAGAAAUAGUCUUGCGCUCAACAAGAAAGUCUGUAAUCACUUUAAGGGUA it was 0; in that of GUUAACGGUCAUAGGCCAUGGAAACUAGGAGCACCAUUUCGCUGCCAGUGAAGAAAUGAACAAAGAAAAUCUGGGCCAGGCAGACAUCAAAAGAAAUAGUCUUGCGCUCAGCCAGAAAGUCUGUAAUCAUUUUAAGGGUA, 0.01.
Under GUUAACGGUCAUAGGCCCUGGAAACUAGGAGCACCAUUUCGCUGCCAGUGAAGAAAUGAACAAAGAAAAUCUGGGCCAGGCAGGCAUCAAAAGAAUUAGUCUUGCGCUCAACCAGAAAGUCUGUAAUCAUUUUAAGGGUA stands 0.98; under GUUAACGGUCAUAGGCCAUGGAAACUAGGAGCACCAUUUCGCUGCCAGUGAAGAAAUGGACAAAGAAAAUCUGGGCCAGGCAGGCAUCAAAAGAAAUAGUCAUGCGCUCAACCAGAAAGUCUGUAAUCAUUUUAAGGGUA, 0.81.
For the variant GUUAACGGUCAUAGCCCAUGGAAACUAGGAGCACCAUUUCGCUGCCAGUGAAGAAAUGAACAAAGAAAAUCUGGGCCAGGCAAGCAUCAAAAGAAAUAGUCUUGCGCUCAACCAGAAAGUCUGUAAUCAUUUUAAGGGUA, the self-cleavage came out at 2.06.
For GUUAACGGUCAUAGGCCAUGGAAACUAGGAGCACCAUUUCGCUGCCAGUGAAGAAAUGAACAAAGAAAAUCUGGGCCAGGCAGGCAUCAAAAGGAAUAGUCUUGCGCUCAACCGGAAAGUCUGUAAUCAUUUUAAGGGUA, the self-cleavage came out at 0.36.
Under GUUAACGGUCAUAGGCCAUGGAAACUAGGAGCACCAUUUCGCUGCCUGUGAAGAAAUGAACAAAGAAAAUCUGGGCCAGGCUGGCAUCAAAAGAAAUAGUCUUGCGCUCAACCAGAAAGUCUGUAAUCAUUUUAAGGGUA stands 0.17.
Under GUUAACGGUCAUAGGCCAUGGAAACUAGGAGCACCAUCUCGCUGCCAGUGAAGAAACGAACAAAGAAAAUCUGGGCCAGGCAGGCAUCAAAAGAAAUAGUCUUGCGCUCAACCAGAAAGUCUGUAAUCAUUUUAAGGGUA stands 0.83; under GUUAACGGUCAUAGGCCAUGGAAACUAGGAGCACCAUUUCGCUGCCAGUGGAGAAAUGAACAAAGAAAAUCUGGGCCAGGCAGGCAUCAAAAGAAAUAGUCUUGCGCUCAACCAGAAAGUCUAUAAUCAUUUUAAGGGUA, 2.08; under GUUAACGGUCAUAGGCCAUGGAAACUAGGAGCACCAUUUCGCUGCCAGUGAAGAAAUGAACAAAGAGAAUCUGGGCCAGGCAGGCAUCAAAAGAAAUAGUCUUGCGCUCAACCAGAAAGUCUGAAAUCAUUUUAAGGGUA, 0.87.
In the case of GUUAACGGCCAUAGGCCAUGGAAACUAGGAGCACCAUUUCGCUGCCAGUGAAGAAAUGAACAAAGUAAAUCUGGGCCAGGCAGGCAUCAAAAGAAAUAGUCUUGCGCUCAACCAGAAAGUCUGUAAUCAUUUUAAGGGUA it was 1.42.

For the origin of these results see the RNAGym collection of RNA variant scans (doi:10.7554/elife.90254).
